# Assay results from the supplement of paper PMC9170038.
# Test system: K4 kissing-loop RNA reporter
# Assay: apparent KD of K4 kissing-loop reporter; higher = weaker reporter binding
# Details: Eterna round: R107
# Protocol: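 RNA-MaP round R107: designed RNA switches with theophylline, tryptophan, arginine or FMN aptamers are transcribed on-chip within common flanks. They are titrated with a labelled K4 kissing-loop RNA reporter in RNA-MaP buffer (100 mM Tris pH 7.5, 80 mM KCl, 4 mM MgCl2), without ligand or with the indicated ligand. Median apparent KD per design.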
# [1] = input ligand: theophylline 20 uM
# [2] = input ligand: tryptophan 2.4 mM
# 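Further: bound reporter read as fluorescence of individual clusters on recovered sequencing chips by microscopy, with normalized cluster intensities fitted with a binding model.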
Sequence,apparent KD of K4 kissing-loop reporter (input ligand: FMN 200 uM) [nM],apparent KD of K4 kissing-loop reporter (input ligand: arginine 13.2 mM) [nM],apparent KD of K4 kissing-loop reporter (input ligand: none) [nM],apparent KD of K4 kissing-loop reporter [1] [nM],apparent KD of K4 kissing-loop reporter [2] [nM]
CGCGCCCAGCCGGAUACCAGUGACCCGCUGGGAACCGCGGGCCCAGAGUGAUGUUCGGGACACCCUUGGCAGCCGCCUGGGCGGU [#2 Same State - Theophylline B Attempt #10 (HarryS)],2380,576,1270,576,1570
UGCAUGCUAGUAGUGAUGUUACAUGAUGAUACCAGUGCUUUUUUGCACCCUUGGCAGCGUCAUUUUGCAUGCACGUCGAAAGACG,511,473,565,344,474
GCGCGGGAGUGAUGUUCCAAGUGGUGUUAACGAGGACCGGUACGGCCGCCACUCGUUACGGCCGGGCCGUAGGAUAAACUGGCGC [Same State - Tryptophan A (Freestyle 15)],373,418,479,544,398
UUUAUAUUGUCGGCCGCCACUGGAUUAAUAUUUGUAUAAUCUAGUUCAAAGUGAUGUUUUGAGUCCAGGACCGGGACAUUUGUUA [JR_ExcTryptoB_Sub004],670,515,536,558,445
UGUCAUUGGUCGGCCGCCACUUCAGGUCAAAGACCAGAGUGAUGUUCUUGCACAAAGUGCUUAAGAAGGACCGGGACCGAUGACU [TrypBS 14 #SwitchBubble #K4Middle],256,53.5,63.3,69.5,1060
GAGAAUCUCACGGCCGCCACUCACCUGUUAAUUGACAUCGACGGCCUCGACCAGUGAUGUUGUGUGAGGACCGGGUGUCUCGUGU [theeternabot_exclusion_KL_Trp_B_32],647,519,702,562,423
UGUGUUGUUUUGAUGUUUGGUGUUGCAUGGCAGGAUAUCGUAGAGGCGAGAAGGGCUUUUGUGCGGUAUGAGUGAUGUUUGUAGG [iihymullin],509,372,509,466,398
AAAUAGAUCAGUCAACCAGUGAUGUUGGAAGGAGCGUGCGAAAGCACAGGUAGGUCGCCAGAAUAAAAUUGGCUGAUCAAAAUAA,328,338,333,408,185
CACCCUGGACAAGGAUAUAUCAUGCGCCAAGGGCAGUGAUGUUGCCACAGGCUUGGGUCCAGUUCGAUAGAAGGUGUCUGGUAUU [theeternabot_sameState_KL_FMN_B_4],203,174,244,159,183
AGUGAUGUUGAGUGAUGUUAGUGAAGUGAUCGAGGACCGGUACGGCCGCCACUCGAGUGAUGAGUGAGUGAUGUUUGUUUAGUGA [hhbmullin],168,74.4,113,120,78.2
UAAGUAAGGGAUGAUACCAGAGAGUGAUGUUCUCAAGCGCUAUAGGAUAGCCUUAUCCACCUCCCUUGGCAGCAUACCCACUGGG [theeternabot_exclusion_KL_Theo_B_13],333,311,355,346,340
CCCAGUGAUGUUGGGAGUAGCCACAGGGAAGGAGCGUGCUAGAGCACAGGUAGGUCGCCCACUGGGUCAGUGAUGUUGGUCGGGU [Same State Arginine A GF 28],275,178,186,361,208
AGGGUAAGGCGUUAACAUGACACCUGGGAAGGAGCGCGGUACACCGCAGGUAGGUCGCCCAGUGAUGUUGGGUGAUUGUAUGAGU [KL-XArg-A24],149,123,136,150,131
GUGCAGUGAUGUUGCACGAGGAAAGACGAUACCAGCCGUAAAUAAGGCCCUUGGCAGCGUAGGCCAGCAUAAAGUAUGCUAGUCU [Oresbelaen],120,107,111,89.2,99
UGUCAUUGGUCGGCCGCCACUUCAUAAAGAGUGAUGUUCUGAAAGACGGAUCGAAAGAUCUGUCGGAGGACCGGGACCGAUGACU [FiskerMod 2 - Jieux - Same State - Tryptophan B],1450,587,1440,686,397
GCCGUACGCAUGGAUACCAGAGUCUUUCUAGUGCCUCUGGAGUACAGUGAUGUUGUGCCACUCCCUUGGCAGCCAUGCGUACGGC,1080,647,906,671,768

Sequence,apparent KD of K4 kissing-loop reporter (input ligand: FMN 200 uM) [nM],apparent KD of K4 kissing-loop reporter (input ligand: arginine 13.2 mM) [nM],apparent KD of K4 kissing-loop reporter (input ligand: none) [nM],apparent KD of K4 kissing-loop reporter [1] [nM],apparent KD of K4 kissing-loop reporter [2] [nM]
AAGCAGUCACUCGAAUCCAUCGAAGAUGGGCGAGGACCGGUACGGCCGCCACUCGGAGUGAUGUUCCGAAGACUGCAAAAUAAAA,262,264,419,786,378
AUUCAUUUCAGAGGAUAUCGAAGGAGAGUGAUGUUCUCCCAUAGCCCAGUGAUGUUGGAAGCUAUUCGAGAAGGCUGUGGGUGGA [Same State FMN B GF 26],178,270,271,222,216
GCCUGGGCACGAAGGAGCGCCGUGACAGGUUACUGCCUUGGGCAGUGAUGUUGCUCAAUCUGGCAGGUAGGUCGCGUGCCCAGGC,162,162,161,159,168
AUUUAAUGUAUAGAUUAUAUACAUUAUUCAGAGGAUAUGCAUUGAAGCAGAAGGCUGGAUGUAGUGAUGUUGCAAUUUUAAUUUA [JR_SSFMNA_Sub007],205,247,218,299,143
UUUUUUAAGAUGUCGACCAACCCGAAGCUACGAGGACCGGUACGGCCGCCACUCGCCAGUGAUGUUGGCGACUGGUGAAACCAUG [Ceesaror],133,97.8,110,103,227
AGAGUCGGCUGUGAUACCAGUCGUAUAACAACAUGUCGCAGUGAUGUUGCGAGAUAGGAUGACCCUUGGCAGCACUCAGUACGAU [Same State Theophylline B GF 7],425,372,347,404,426
UUUUGGCCAACGGCCGCCACUCACUAGUGAUGUUAGUUUGUGUUAUUCAUGAACCCGAUGUCGUCGAGGACCGGGUUGGGUUAUA [theeternabot_exclusion_KL_Trp_B_41],242,197,237,201,244
GCUAUGGUAGGAAGGAGCGCUUAUUUAUUAAUAAGAGUGAUGUUCGAUAAUAGAUAUUUAUAGCAGGUAGGUCGCCUACUAUAGC [Arginine B K4 11],290,278,293,321,165
UGAUAGGACAGAAGGAGCGGUAGUGAUGUUGCCAAAAGGAUAAGGUGUCAAAAGACACCCUACCAGGUAGGUCGCUGUCCUAUCU,175,216,154,179,152
UCUUUUGUAUAUGAUACCAGCAGUGAGAGACAGGAAGUAUAGUGAUGUUAUAUGAGAGAAUGCCCUUGGCAGCGUGUGCGGUUGG [SSTheophylB.V],95,174,322,268,137
AAAAUUAUCUGAAGGAGCGUGAAAUAAUAUUAAACAUAACAACCCAGUGAUGUUGGGUUAUCACAGGUAGGUCGCAGAUGUAGAA [Same State Arginie B GF 25],106,113,108,115,90.8
UCCUAGGCUCGAAAGAGCCUAGGAUGGACUCAGGAUAUCCGGAAACGGAGAAGGGAGUCACUAGUGAUGUUAGGGACUCCCUAAA,87.5,79,101,70.3,87.5
AGAAACUUGUAUGUCGGCCCUGCGCGCGAUACCAGCCAAAUGGAUGGCCCUUGGCAGCGCAGCGAGUGAUGUUCGCCCGGCUGAC [Exclusion Theophylline A GF 21],77,108,95.9,110,65.7
GGUAUCUAUACAGAUACCAGUCGUACAGCACCAUUACAGGUUAGUGAUGUUAACCUGUACGACCCUUGGCAGCUGUAUAAUAAUA [Theo B Ex t2a],105,85.4,96.8,121,87.9
GGAGGGAUCUCGGCCGCCACUCAUAAGAAAUGGGCCUCAGAAAUAUAGUGAUGUUAUAUAAAGAAGAGGACCGGGAGAAAGAAGG [ExTryptoB.D],197,128,129,203,131
UUUGUGAGUGAUGUUUGCAAUACGUUACCGAAGGAUAUUGUUGCGCCAAGAAGGUCGGAUGGAUCCAUGGGACAUGCCCUGGAGA [theeternabot_sameState_KL_FMN_A_45],617,384,509,450,474
